Test results reported in PMC7683268.

Molecular target: N-terminally MBP-fused and C-terminally mCherry-fused C-terminal intracellular region of Lrp5 (zebrafish)
Experiment: bead binding assay read by EGFP fluorescence microscopy

- EGFP signal on beads: 5.3
Substance: N-terminally GST-fused and C-terminally EGFP-fused RBP1a (natural protein)
